Measured values reported in patent publication US20160194394A1 (GOVERNING COUNCIL OF THE UNIVERSITY OF TORONTO, published 2016).
Where two headings read alike, the source gives them in different places.

T1: human Fzd5-Fc
T1 construct: also called FZD5 ECD; Fzd5 CRD-Fc fusion protein (R&D systems); not shown: exact vendor limits of the CRD construct
T1 chain: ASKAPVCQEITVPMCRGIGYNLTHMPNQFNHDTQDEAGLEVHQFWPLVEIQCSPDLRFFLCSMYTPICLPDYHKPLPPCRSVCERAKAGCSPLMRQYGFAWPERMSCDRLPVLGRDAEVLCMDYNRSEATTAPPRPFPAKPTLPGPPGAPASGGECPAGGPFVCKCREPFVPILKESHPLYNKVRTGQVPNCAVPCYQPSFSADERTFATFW

T2: human Fzd8-Fc
T2 construct: also called FZD8 ECD; Fzd8 CRD-Fc fusion protein (R&D systems); not shown: exact vendor limits of the CRD construct
T2 chain: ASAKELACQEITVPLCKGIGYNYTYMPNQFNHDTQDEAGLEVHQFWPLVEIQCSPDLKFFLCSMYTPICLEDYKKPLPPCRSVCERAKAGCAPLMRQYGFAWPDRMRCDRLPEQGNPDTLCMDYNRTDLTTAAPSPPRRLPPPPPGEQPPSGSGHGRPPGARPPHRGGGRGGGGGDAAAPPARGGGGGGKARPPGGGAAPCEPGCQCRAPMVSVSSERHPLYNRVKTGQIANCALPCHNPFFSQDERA


Key:
[1] = biological target: T3, FZD7 receptor expressed on cells (full-length) (UniProt O75084 33-574, limits assumed); assay: cell-based or functional assay
[2] = biological target: T3, FZD7 receptor expressed on cells …; assay: flow cytometry, 200 nM Fab, MDA MB 231 [cont'd]
Method in brief: (§1)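 EDTA-harvested MDA MB 231 cells, either FZD7-overexpressing or with endogenous receptor, were blocked in 2% FBS/PBS and stained with Fab for 30 min on ice. Detection used anti-F(ab′)₂-APC (1:1000, 15 min on ice), then 1% paraformaldehyde fixation and flow cytometry. Values are percent of cells in positive gates.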

[3] = biological target: T3, FZD7 receptor expressed on cells …; assay: flow cytometry, 200 nM Fab, FZD7 over-expression line (MDA MB 231) [cont'd]
Method in brief: as §1

[4] = biological target: T4, recombinant Frizzled receptor 7 (FZD7) cysteine-rich domain (CRD) fused to the Fc region of human IgG (human, UniProt O75084 33-185); assay: ELISA, 1ug/ml (20nM) Fab [cont'd]
Method in brief: (§2)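 Plates coated with 2 ug/ml FZD7-Fc or Fc protein were probed with bacterially expressed purified Fabs for 1 h at room temperature in 0.5% BSA/0.05% Tween20/PBS. Bound Fab detected with anti-FLAG-HRP for 45 min, developed with TMB and acid stop, and read as absorbance at 450 nm; n.t. = not tested.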

[5] = biological target: T4, recombinant Frizzled receptor 7 (FZD7) …; assay: ELISA, 10ug/ml (200nM) Fab [cont'd]
Method in brief: as §2

[6] = biological target: T4, recombinant Frizzled receptor 7 (FZD7) …; assay: competitive ELISA, detected phage-Fab G2
[7] = biological target: T4, recombinant Frizzled receptor 7 (FZD7) …; assay: competitive ELISA, detected phage-Fab H3
[8] = biological target: T4, recombinant Frizzled receptor 7 (FZD7) …; assay: competitive ELISA, detected phage-Fab H1
[9] = biological target: T4, recombinant Frizzled receptor 7 (FZD7) …; assay: competitive ELISA, detected phage-Fab E8
[10] = biological target: T4, recombinant Frizzled receptor 7 (FZD7) …; assay: competitive ELISA, detected phage-Fab H10
[11] = biological target: T3, FZD7 receptor expressed on cells …; assay: cell-based or functional assay; remark: listed apart in the source
[12] = biological target: T4, recombinant Frizzled receptor 7 (FZD7) …; assay: competitive ELISA, detected phage-Fab D10
[13] = biological target: T4, recombinant Frizzled receptor 7 (FZD7) …; assay: competitive ELISA, detected phage-Fab A1
[14] = biological target: T4, recombinant Frizzled receptor 7 (FZD7) …; assay: SPR
[15] = biological target: T4, recombinant Frizzled receptor 7 (FZD7) …; assay: competitive ELISA, detected phage-Fab G6
[16] = biological target: T4, recombinant Frizzled receptor 7 (FZD7) …; assay: competitive ELISA, detected phage-Fab E4
human Fzd5-Fc = biological target: T1, human Fzd5-Fc; assay: SPR
[17] = biological target: T4, recombinant Frizzled receptor 7 (FZD7) …; assay: SPR; remark: listed apart in the source
human Fzd8-Fc = biological target: T2, human Fzd8-Fc; assay: SPR
mouse Fzd2-Fc = biological target: T5, mouse Fzd2-Fc; assay: SPR
T5 construct: also called mFZD2 ECD; Fzd2 CRD-Fc fusion protein (R&D systems); not shown: exact vendor limits of the CRD construct

human Fzd1-Fc = biological target: T6, human Fzd1-Fc; assay: SPR
T6 construct: also called FZD1 ECD; Fzd1 CRD-Fc fusion protein (R&D systems); not shown: exact vendor limits of the CRD construct

[18] = biological target: recombinant Frizzled receptor 7 (FZD7) cysteine-rich domain (CRD) fused to the Fc region of human IgG (human, UniProt O75084 33-185); assay: SPR; remark: listed apart in the source

T5 sequence (chain, as listed by the source limits assumed): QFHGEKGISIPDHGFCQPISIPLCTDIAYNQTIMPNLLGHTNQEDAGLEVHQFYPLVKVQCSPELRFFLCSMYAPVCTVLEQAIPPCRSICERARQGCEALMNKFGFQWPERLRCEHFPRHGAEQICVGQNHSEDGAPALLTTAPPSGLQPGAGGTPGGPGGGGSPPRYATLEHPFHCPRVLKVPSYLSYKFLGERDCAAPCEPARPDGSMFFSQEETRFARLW
T6 sequence (chain, as listed by the source limits assumed): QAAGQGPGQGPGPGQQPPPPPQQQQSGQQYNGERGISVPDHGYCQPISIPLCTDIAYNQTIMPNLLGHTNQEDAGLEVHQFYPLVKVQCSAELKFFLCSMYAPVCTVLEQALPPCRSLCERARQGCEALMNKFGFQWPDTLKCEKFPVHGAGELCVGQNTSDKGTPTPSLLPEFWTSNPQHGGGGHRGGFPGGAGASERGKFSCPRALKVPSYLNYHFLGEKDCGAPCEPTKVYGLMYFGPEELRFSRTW

Row | Binder | IC50, Wnt3a-induced Top Flash reporter (% ligand mediated) [1] [nM] | % population within the positive gate [2] [%] | % population within the positive gate [3] [%] | OD 450 [4] | OD 450 [5] | % of Fab phage in presence of 750 nM Fab [6] [%] | % of Fab phage in presence of 750 nM Fab [7] [%] | % of Fab phage in presence of 750 nM Fab [8] [%] | % of Fab phage in presence of 750 nM Fab [9] [%] | % of Fab phage in presence of 750 nM Fab [10] [%] | decrease in Wnt 3a-induced transcriptional activity (TOP-FLASH luciferase reporter in MDA MB 231 cells, 400 nM Fab) [11] [%] | % of Fab phage in presence of 750 nM Fab [12] [%] | % of Fab phage in presence of 750 nM Fab [13] [%] | Kd [14] [nM] | koff [14] [s⁻¹] | kon [14] [M⁻¹ s⁻¹] | % of Fab phage in presence of 750 nM Fab [15] [%] | % of Fab phage in presence of 750 nM Fab [16] [%] | Kd [17] [nM] | Kd (mouse Fzd2-Fc) [nM] | also measured
1 | IgG E8 (antibody, V domains shown) VH: EVQLVESGGGLVQPGGSLRLSCAASGFNIYSSYIHWVRQAPGKGLEWVAYIYSYSGYTYYADSVKGRFTISADTSKNTAYLQMNSLRAEDTAVYYCARWYHPYWYASAIDYWGQGTLVTVSS VL: DIQMTQSPSSLSASVGDRVTITCRASQSVSSAVAWYQQKPGKAPKLLIYSASSLYSGVPSRFSGSRSGTDFTLTISSLQPEDFATYYCQQVSGGGGLITFGQGTKVEIK | 106 | – | – | – | – | – | – | – | – | – | – | – | – | – | – | – | – | – | – | – | –
2 | Fab E4 (Fab) chain 1: EVQLVESGGGLVQPGGSLRLSCAASGFNLSYYSMHWVRQAPGKGLEWVASIYPSYGYTYYADSVKGRFTISADTSKNTAYLQMNSLRAEDTAVYYCARPSPGSYHGMDYWGQGTLVTVSSASTKGPSVFPLAPSSKSTSGGTAALGCLVKDYFPEPVTVSWNSGALTSGVHTFPAVLQSSGLYSLSSVVTVPSSSLGTQTYICNVNHKPSNTKVDKKVEPKSC chain 2: DIQMTQSPSSLSASVGDRVTITCRASQSVSSAVAWYQQKPGKAPKLLIYSASSLYSGVPSRFSGSRSGTDFTLTISSLQPEDFATYYCQQSSYSLITFGQGTKVEIKRTVAAPSVFIFPPSDSQLKSGTASVVCLLNNFYPREAKVQWKVDNALQSGNSQESVTEQDSKDSTYSLSSTLTLSKADYEKHKVYACEVTHQGLSSPVTKSFNRGECGGS | – | 98.8 | 93.4 | 3.24 | 3.27 | 4.6 | 10.5 | 21.9 | 5.9 | 3.2 | > 70 | 6.1 | 6.5 | 0.422 | 0.000803 | 1.9e+06 | 7.4 | 5.1 | 0.42 | 0.65 | Kd (human Fzd5-Fc): 1.43 nM; Kd (human Fzd8-Fc): 0.88 nM; Kd (human Fzd1-Fc): 0.33 nM
3 | Fab H1 (Fab) chain 1: EVQLVESGGGLVQPGGSLRLSCAASGFNISSSYIHWVRQAPGKGLEWVAYIYSSYGSTYYADSVKGRFTISADTSKNTAYLQMNSLRAEDTAVYYCARASWYALDYWGQGTLVTVSSASTKGPSVFPLAPSSKSTSGGTAALGCLVKDYFPEPVTVSWNSGALTSGVHTFPAVLQSSGLYSLSSVVTVPSSSLGTQTYICNVNHKPSNTKVDKKVEPKSC chain 2: DIQMTQSPSSLSASVGDRVTITCRASQSVSSAVAWYQQKPGKAPKLLIYSASSLYSGVPSRFSGSRSGTDFTLTISSLQPEDFATYYCQQYWYGVAPITFGQGTKVEIKRTVAAPSVFIFPPSDSQLKSGTASVVCLLNNFYPREAKVQWKVDNALQSGNSQESVTEQDSKDSTYSLSSTLTLSKADYEKHKVYACEVTHQGLSSPVTKSFNRGECGGS | – | 99 | 94.7 | 3.2 | 3.19 | 4.5 | 18.3 | 8.5 | 6.7 | 4.3 | > 70 | 4.7 | 4.5 | 0.537 | 0.000457 | 852000 | 10.4 | 12 | 0.54 | 0.57 | Kd (human Fzd1-Fc): 0.64 nM
4 | IgG D10 (antibody, V domains shown, Fab converted into full-length IgG1, made in 293F cells) VL: DIQMTQSPSSLSASVGDRVTITCRASQSVSSAVAWYQQKPGKAPKLLIYSASSLYSGVPSRFSGSRSGTDFTLTISSLQPEDFATYYCQQYWAPITFGQGTKVEIK VH: EVQLVESGGGLVQPGGSLRLSCAASGFNIYYYYMHWVRQAPGKGLEWVASIYSYSGSTYYADSVKGRFTISADTSKNTAYLQMNSLRAEDTAVYYCARYASYVGYYPWALDYWGQGTLVTVSS | 123 | – | – | – | – | – | – | – | – | – | – | – | – | – | – | – | – | – | – | – | Kd [18]: 1.45 nM
5 | IgG G6 (antibody, V domains shown, Fab converted into full-length IgG1, made in 293F cells) VL: DIQMTQSPSSLSASVGDRVTITCRASQSVSSAVAWYQQKPGKAPKLLIYSASSLYSGVPSRFSGSRSGTDFTLTISSLQPEDFATYYCQQYYSLFTFGQGTKVEIK VH: EVQLVESGGGLVQPGGSLRLSCAASGFNIYYYSMHWVRQAPGKGLEWVAYISPSYGYTYYADSVKGRFTISADTSKNTAYLQMNSLRAEDTAVYYCARGYFYSWGGMDYWGQGTLVTVSS | – | – | – | – | – | – | – | – | – | – | – | – | – | – | – | – | – | – | – | – | Kd [18]: 0.3 nM
